For assay [1], the target named is T1, MICA*008 on MEL-JUSO cells (human, UniProt Q29983 24-317).
T1 chain: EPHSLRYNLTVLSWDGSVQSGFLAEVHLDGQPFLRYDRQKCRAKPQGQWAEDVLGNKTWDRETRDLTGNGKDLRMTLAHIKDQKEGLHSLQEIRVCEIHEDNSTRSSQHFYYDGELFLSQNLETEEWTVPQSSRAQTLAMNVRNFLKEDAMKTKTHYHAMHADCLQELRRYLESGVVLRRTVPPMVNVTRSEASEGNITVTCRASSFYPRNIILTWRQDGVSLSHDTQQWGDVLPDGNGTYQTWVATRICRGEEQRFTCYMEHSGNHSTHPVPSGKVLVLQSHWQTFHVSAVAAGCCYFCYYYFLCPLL
As to the kind of experiment: cell-based or functional assay.

In assay [2] the target is MICA*004 on HCC1534 cells (human, UniProt Q29983 24-383). In words: cell-based or functional assay.
Assay [3] addresses MICB*005 on HCC1534 cells (human). In words: cell-based or functional assay.
The target of a further assay is T2, huMICA*002 alpha 3-his (human).
T2 construct: whole construct entry: GS, alpha 3 domain, GNS, His8; also called MICA002.His; MICA*002 alpha3 construct
T2 chain: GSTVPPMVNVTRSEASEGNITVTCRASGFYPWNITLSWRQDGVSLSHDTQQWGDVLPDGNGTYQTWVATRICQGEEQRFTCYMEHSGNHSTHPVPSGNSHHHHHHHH
In words: SPR, Biacore 8K, antibody on Protein A chip. (In general: In SPR one partner is held on a chip, and binding of the other changes the refractive index at the surface.)

The target in a further assay is T3, huMICA*004 alpha 3-his (human).
T3 construct: whole construct entry: GS, alpha 3 domain, GNS, His8; also called MICA004.His; MICA*004 alpha3 construct
T3 chain: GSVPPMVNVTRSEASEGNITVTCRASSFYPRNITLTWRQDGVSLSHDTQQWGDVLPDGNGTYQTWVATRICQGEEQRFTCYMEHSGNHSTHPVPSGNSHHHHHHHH
In words: SPR, Biacore 8K, antibody on Protein A chip.

The next assay addresses T4, huMICA*008 alpha 3-his (human).
T4 construct: whole construct entry: GS, alpha 3 domain (Thr204-Ser297), GNS, His8; also the construct of the FPOP experiment; also called MICA008.His; MICA*008 alpha3 construct
T4 chain: T2 chain with G28S, W32R, T35I, S37T, Q73R
As to the kind of experiment: SPR, Biacore 8K, antibody on Protein A chip.

A further assay addresses T5, huMICB*005 alpha 3-his (human).
T5 construct: whole construct entry: GS, alpha 3 domain, GNS, His8; also called MICB005.His; MICB*005 alpha3 construct
T5 chain: T2 chain with R12C, A15V, G28S, W32R, S37T, D48N, C72R, S90G
As to the kind of experiment: SPR, Biacore 8K, antibody on Protein A chip.

Substitutions are numbered along the chain they refer to.
For % Inhibition in this document: test concentration or dose not given here.

B1: 1D5v1 (antibody, IgG1, V domains shown)
VH: EIQLVQSGAEVKKPGASVKVSCKASGYAFTSQNIYWVRQAPGQGLEWIGYIEPYNVVPMYNPKFKGRATLTVDKSTSTAYMELRSLRSDDTAVYYCARSGSSNFDYWGQGTLVTVSS
VL: EIVLTQSPDFQSVTPKEKVTITCSASSSISSHYLHWYQQKPDQSPKLLIYRTSNLASGVPSRFSGSGSGTDYTLTINSLEAEDAATYYCQQGSSLPLTFGQGTKVEIK
notes: humanized variant of 1D5; also called lD5v1
A word on the % Inhibition: it is the drop in the measured response relative to a control, in per cent. The term Kd denotes the equilibrium constant for the complex coming apart. Read a low Kd as higher affinity. On to B1, for which the “% Inhibition” value was 52% in assay [1], 54% in assay [2] and 41% in assay [3]. The Kd with huMICA*002 alpha 3-his amounted to 1.4 nM; in the assay with huMICA*004 alpha 3-his, 1.17 nM; with huMICA*008 alpha 3-his, 0.96 nM; in the assay with huMICB*005 alpha 3-his, 1.96 nM.

B2: 1D5v4 (antibody, IgG1, V domains shown)
VH: B1 VH with I2V, A68V, L70I, V72R, K74T, M81L, R84S, D89E
VL: B1 VL
notes: humanized variant of 1D5
On to B2, for which the entries for the “% Inhibition” value in assay [1], in assay [2] and in assay [3] were 43%, 46% and 34%, respectively. For the same molecule, the Kd with huMICA*002 alpha 3-his was found to be 6.63 nM; with huMICA*004 alpha 3-his it was 6.2 nM; with huMICA*008 alpha 3-his, 7.45 nM; in the assay with huMICB*005 alpha 3-his, 16.2 nM.

B3: 1D5v6 (antibody, IgG1, V domains shown)
VH: B1 VH with I2V, I48M, A68V, L70M, V72T, K74T
VL: B1 VL with Y50K, Y72F
notes: humanized variant of 1D5
Regarding B3, the “% Inhibition” value is 51% in assay [1], 47% in assay [2] and 37% in assay [3]. The Kd with huMICA*002 alpha 3-his amounted to 3.69 nM; in the assay with huMICA*004 alpha 3-his it was 2.91 nM; in the assay with huMICA*008 alpha 3-his, 2.61 nM; with huMICB*005 alpha 3-his, 6.15 nM.

B4: 1D5v3 (antibody, IgG1, V domains shown)
VH: B1 VH with M81L, R84S, D89E
VL: B1 VL
notes: humanized variant of 1D5
In the case of B4, the entries for the “% Inhibition” value in assay [1], in assay [2] and in assay [3] were 50%, 56% and 38%, respectively. Moreover, the Kd in the assay with huMICA*002 alpha 3-his was 1.21 nM; with huMICA*004 alpha 3-his, 0.96 nM; with huMICA*008 alpha 3-his, 0.85 nM; with huMICB*005 alpha 3-his it was 1.78 nM.

B5: 1D5v5 (antibody, IgG1, V domains shown)
VH: B1 VH
VL: B1 VL with Y50K, Y72F
notes: humanized variant of 1D5
Turning to B5, the “% Inhibition” value was determined as 36% in assay [1], 39% in assay [2] and 32% in assay [3]. In addition, the Kd amounted to 2.59 nM in the assay with huMICA*002 alpha 3-his, 2.13 nM with huMICA*004 alpha 3-his, 1.64 nM with huMICA*008 alpha 3-his and 3.99 nM in the assay with huMICB*005 alpha 3-his.

B6: 1D5v8 (antibody, IgG1, V domains shown)
VH: B1 VH with I2V, A68V, L70I, V72R, K74T, M81L, R84S, D89E
VL: B1 VL with Y50K, Y72F
notes: humanized variant of 1D5
Consider B6, for which the “% Inhibition” value in assay [1] was found to be 52%; in assay [2], 42%; in assay [3], 35%. In addition, the Kd with huMICA*002 alpha 3-his was determined as 11.3 nM; in the assay with huMICA*004 alpha 3-his, 9.41 nM; with huMICA*008 alpha 3-his, 9.08 nM; with huMICB*005 alpha 3-his it was 18.8 nM.

B7: 1D5v7 (antibody, IgG1, V domains shown)
VH: B1 VH with M81L, R84S, D89E
VL: B1 VL with Y50K, Y72F
notes: humanized variant of 1D5
Consider B7, for which the “% Inhibition” value in assay [1] came to 51%; in assay [2], 48%; in assay [3] it was 42%. In addition, the Kd with huMICA*002 alpha 3-his turned out to be 2.21 nM; with huMICA*004 alpha 3-his, 1.67 nM; in the assay with huMICA*008 alpha 3-his, 1.7 nM; in the assay with huMICB*005 alpha 3-his, 3.31 nM.

B8: 1D5v2 (antibody, IgG1, V domains shown)
VH: B1 VH with I2V, I48M, A68V, L70M, V72T, K74T
VL: B1 VL
notes: humanized variant of 1D5
As to B8, the “% Inhibition” value in assay [1] is 33%; in assay [2], 38%; in assay [3] it was 26%. Besides, the Kd with huMICA*002 alpha 3-his is 1.69 nM; in the assay with huMICA*004 alpha 3-his, 1.34 nM; in the assay with huMICA*008 alpha 3-his, 0.89 nM; with huMICB*005 alpha 3-his, 2.69 nM.

B9: 1D5v14 (antibody, IgG1, V domains shown)
VH: B1 VH with I2V, I48M, A68V, L70M, V72T, K74T
VL: DIQMTQSPSSLSASVGDRVTITCSASSSISSHYLHWYQQKPGKAPKLLIYRTSNLASGVPSRFSGSGSGTDFTLTISSLQPEDFATYYCQQGSSLPLTFGQGTKVEIK
notes: humanized variant of 1D5; also called 1D5v14 second data point
For the molecule B9, the Kd is 1.62 nM in the assay with huMICA*002 alpha 3-his, 1.23 nM in the assay with huMICA*004 alpha 3-his, 1.16 nM with huMICA*008 alpha 3-his and 2.14 nM in the assay with huMICB*005 alpha 3-his.

B10: 6E1 (m IgG2a, CHO) (antibody, V domains shown)
VH: QGQMQQSGAELVKPGASVKLSCKTSGFTFSDNYISWLKQKPGQSLEWIAWIYAGTGGSSYNQKFRDKAQLTVDTSSRTAYMQLSSLTTEDSAIYYCARHDYYGTSGAWFAYWGRGTLVTVSA
VL: DVLMTQTPLSLPVSLGDQASISCRSSQHIVHSNENTYLEWYLQKPGQSPKLLIYKVSNRFSGVPDRFSGSGSGTDFTLKISRVEAEDLGVYYCFQGSHVPWTFGGGTKVEIK
As to B10, the “% Inhibition” value in assay [1] is 36%; in assay [2], 40%; in assay [3], 47%.

B11: 15F11 (antibody, V domains shown)
VH: EIQLQQSGPELVKPGASVRVSCKPSGYAFTSNNIYWVKQSRRKSLEWIGYIDPYIGRIIYNQQFKDKATLTVDKSSSTAYMHLNSLTSEDSAVYYCSRSGERSNFDYWGQGTTLTVSS
VL: EIVLTQSPTAMAASPGEKITITCSASSSISSNYLHWYQQKPGFSPKLLIYRTSNLASGVPARFSGSGSGTSYSLTIGPMEAEDVATYYCQQGGSLPLTFGAGTKVEIK
notes: mouse variable domains
As to B11, the “% Inhibition” value in assay [1] was 50%; in assay [2] it was 54%; in assay [3], 43%. The equilibrium dissociation constant (Kd) worked out at 2.21 nM with huMICA*002 alpha 3-his, 1.31 nM in the assay with huMICA*004 alpha 3-his, 0.79 nM with huMICA*008 alpha 3-his and 2.28 nM with huMICB*005 alpha 3-his.

B12: 1D5 (m IgG2a, CHO) (antibody, V domains shown)
VH: EIQLQQSGPELVKPGASVKVSCKASGYAFTSQNIYWVKQSHGKSLEWIGYIEPYNVVPMYNPKFKGKATLTVDKSSSSAYIHLNSLTSEDSAIYYCARSGSSNFDYWGQGTTLTVSS
VL: B11 VL with V3I, A10T, N32H, P41S, P78T, G93S
In the case of B12, the “% Inhibition” value in assay [1] stood at 74%; in assay [2] it was 59%; in assay [3] it was 76%.

B13: 15F11 (m IgG2a, CHO) (antibody, V domains shown)
VH: B11 VH
VL: B11 VL
On to B13, for which the “% Inhibition” value was determined as 69% in assay [1], 60% in assay [2] and 57% in assay [3].

B14: 13A9 (antibody, V domains shown)
VH: QVQLQQSGAELVRPGTSVKVSCKASGYAFTNYLIEWVKQRPGQGLEWIGAINPGSGATNYNEKFKDKARLTADKSSNTAYLQFSSLTSDDSAVYFCARFLGNYFDNWGQGATLTVSS
VL: DIQMTQSPASLSASVGETVTITCRASGNIHSYLAWYQQKQGKSPQLLVYYAETLADGVPSRFSGRGSGTQYSLKINSLQPEDFGSYFCQQFWTTPYTFGGGTKVEIK
notes: mouse variable domains
On to B14, for which the results for the “% Inhibition” value in assay [1], in assay [2] and in assay [3] were -7%, 21% and 61%, respectively. For the same molecule, the Kd was determined as 4.82 nM with huMICA*002 alpha 3-his, 6.77 nM with huMICA*004 alpha 3-his, 2.35 nM in the assay with huMICA*008 alpha 3-his and 2.35 nM with huMICB*005 alpha 3-his.

B15: 13A9 (m IgG2a, CHO) (antibody, V domains shown)
VH: B14 VH
VL: B14 VL
In the case of B15, the “% Inhibition” value was found to be 29% in assay [1], 34% in assay [2] and 60% in assay [3].

These data come from patent US20200055939A1 (Genentech, published 2020).
